Reference: patent publication US20200330603A1, “PEPTIDES FOR RENAL THERAPY” (FRED HUTCHINSON CANCER RESEARCH CENTER, priority 2015, published 2020)
“And” between values parts separate entries of the source, which are not always exact repeats. Identical values can stand only once.

Experiments:
trypsin = test: Peptide stability in the presence of trypsin, RP-HPLC; type: in vitro ADME; settings: 5 μg trypsin, pH 7.0, 30 minutes at 37.5° C.
Description: (§1) This example describes peptide stability in the presence of pepsin, trypsin, a reducing agent, or elevated temperature. Peptides were first suspended in 500 µl of ddH2O to a stock concentration of 2 mg/ml. […] These reactions were then quenched with 5 μg of soybean trypsin inhibitor (I) and, in some cases, 10 mM dithiothreitol (DTT). […] Temperature stability was tested by incubating peptides in non-reducing conditions at 70° C. for 1 hour. Stability was evaluated by RP-HPLC.

[1] = Peptide stability to a reducing agent (DTT), RP-HPLC; type: physicochemical; settings: 10 mM DTT in PBS, room temperature, 30 minutes
Description: as §1

[2] = Temperature stability at 70° C., RP-HPLC; type: physicochemical; settings: non-reducing conditions, 70° C. for 1 hour
Description: as §1

[3] = Blood urea nitrogen (BUN) assay in plasma, renal biocompatibility (Example 4); type: in vivo, mice; settings: 100 nmol per mouse intravenously, after 24 hours, one value per mouse
Description: This example describes renal biocompatibility of peptides of this disclosure. The peptides of SEQ ID NO: 18, SEQ ID NO: 20, SEQ ID NO: 21, SEQ ID NO: 26, SEQ ID NO: 36, SEQ ID NO: 39, SEQ ID NO: 45 and SEQ ID NO: 53 were intravenously dosed into mice at 100 nmol per mouse. After 24 hours, mice were anesthesized with Ketamine-Xylazine and euthanized. Plasma and kidneys were removed as quickly as possible after euthanization. A blood urea nitrogen (BUN) assay was performed to assess renal toxicity with a commercially available kit.
The average BUN concentration in plasma for naïve mice was 25 mg/dL, with a standard error of 2 mg/dL. The average BUN concentration in plasma for peptide-dosed mice was 21, with a standard error of 1 mg/dL.

[4] = Plasma creatinine, Jaffe reaction method (Example 14); type: in vivo, mice; settings: Table 3; 100 nmol iv, 24 hours post-peptide administration
Description: (§2) This example illustrates assessment of renal injury by peptides of this disclosure. Mice were injected intravenously at a dose of 100 nmol, which is approximately 16 mg/kg. PBS was administered as a negative control. At 24 hours post-peptide administration, mice were euthanized and plasma blood urea nitrogen (BUN) and plasma creatinine were measured. The blood urea nitrogen (BUN) assay was performed to assess renal toxicity with a commercially available kit. Plasma creatinine concentrations were determined using the colorimetrically corrected Jaffe reaction method. Additionally, the kidneys from these mice were removed, sectioned, and stained using periodic acid Schiff (PAS). […] Histological analysis corroborated the mRNA/protein data.

[5] = Kidney histology, periodic acid Schiff (PAS) stain; type: in vivo, mice; settings: 24 hours after intravenous administration of 100 nmol
Description: as §2

[6] = Plasma BUN, assessment of renal injury (Example 14); type: in vivo, mice; settings: Table 3; 100 nmol iv (approximately 16 mg/kg), 24 hours post-peptide administration
Description: as §2

[7] = Whole body autoradiography of 14C labeled peptides, renal cortex and blood; type: in vivo, mice; settings: for Signal ratio Kidney:Blood (3 hours) / Signal ratio Kidney:Blood (24 hours): renal cortex vs blood from the ventricle, 100 nmol iv; for Pixel density-Bkg/area (3 hours) / Pixel density-Bkg/area (24 hours): renal cortex, 100 nmol 14C labeled peptide iv
Text: This example describes radiolabeling of peptides of this disclosure. Several knotted peptides were radiolabeled by reductive methylation with ^14C formaldehyde and sodium cyanoborohydride with standard techniques. The sequences were engineered to have the amino acids, “G” and “S” at the N terminus. See Methods in Enzymology V91:1983 p. 570 and JBC 254(11):1979 p. 4359. An excess of formaldehyde was used to ensure complete methylation (dimethylation of every free amine). The labeled peptides were isolated via solid-phase extraction on Strata-X columns (Phenomenex 8B-S100-AAK), rinsed with water with 5% methanol, and recovered in methanol with 2% formic acid. Solvent was subsequently removed in a blowdown evaporator with gentle heat and a stream of nitrogen gas. The final product was verified and characterized by high performance liquid chromatography (HPLC).
This example illustrates accumulation of peptides of the present disclosure in kidneys measured by whole body autoradiography. Peptides of the present disclosure were radiolabeled as described in EXAMPLE 2. 100 nmol of ^14C labeled peptides were administered intravenously in mice. Radiolabeled peptide signal was quantified in the renal cortex and blood from the ventricle in 2-3 sections per mouse in 2 mice total. Whole body autoradiography analysis was performed with AIDA.
SEQ ID NO: 55 and SEQ ID NO: 119 ([…]), a linearized version of SEQ ID NO: 55, were radiolabeled with ^14C as described in EXAMPLE 2 and administered intravenously in mice at a dose of 100 nmol. Radiolabeled peptide signal was quantified in the renal cortex and blood from the ventricle in 2-3 sections per mouse in 2 mice total. Whole body autoradiography analysis was performed with AIDA.

pepsin = test: Peptide stability in the presence of pepsin, RP-HPLC; type: in vitro ADME; settings: 20 μg pepsin, pH 1.05, 30 minutes at 37.5° C.
Description: as §1

## GSSEKDCIKHLQRCRENKDCCSKKCSRRGTNPEKRCR [SEQ ID NO: 9]
trypsin
  Trypsin: Partially Resistant
[1]
  Reduction: Not Resistant

## GSEVIRCSGSKQCYGPCKQQTGCTNSKCMNKVCKCYGCG [SEQ ID NO: 8]
trypsin
  Trypsin: Partially Resistant
[1]
  Reduction: Not Resistant
[2]
  Temperature (70° C.): Resistant

## GSSFGLCRLRRGFCARGRCRFPSIPIGRCSRFVQCCRRVW [SEQ ID NO: 45]
[3]
  Peptide BUN: 21 mg/dL and 22 mg/dL
[4]
  Plasma Creatinine: 0.39 mg/dL
[5]
  renal physiology (PAS histology, FIG. 24): normal renal physiology
[6]
  Plasma BUN: 21.5 mg/dL

## GSRPTDIKCSASYQCFPVCKSRFGKTNGRCVNGLCDCF [SEQ ID NO: 24]
trypsin
  Trypsin: Partially Resistant
[1]
  Reduction: Resistant

## GSSCAKPGEMCMRIKCCDGQCGCNRGTGRCFCK [SEQ ID NO: 31]
trypsin
  Trypsin: Partially Resistant
[1]
  Reduction: Not Resistant

## GSGDCLPHLRRCRENNDCCSRRCRRRGANPERRCR [SEQ ID NO: 59]
[7]
  Signal ratio Kidney:Blood (3 hours): 31.2
  Signal ratio Kidney:Blood (24 hours): 6.1
  Pixel density-Bkg/area (3 hours): 3.47E+07
  Pixel density-Bkg/area (24 hours): 2.13E+06

## GSSCAKPRENCNRMNILCCRGECVCPTFGDCFCYGD [SEQ ID NO: 10]
trypsin
  Trypsin: Not Resistant
[1]
  Reduction: Not Resistant
pepsin
  Pepsin: Resistant
[2]
  Temperature (70° C.): Resistant

## GSGDCLPHLKRCKENNDCCSKKCKRRGANPEKRCR [SEQ ID NO: 18]
trypsin
  Trypsin: Partially Resistant
[1]
  Reduction: Partially Resistant
[3]
  Peptide BUN: 21 mg/dL and 18 mg/dL
[4]
  Plasma Creatinine: 0.43 mg/dL
[5]
  renal physiology (PAS histology, FIG. 24): normal renal physiology
[6]
  Plasma BUN: 19.5 mg/dL

## GSECLEIFKACNPSNDQCCKSSKLVCSRKTRWCKYQIG [SEQ ID NO: 38]
trypsin
  Trypsin: Not Resistant
[1]
  Reduction: Not Resistant
pepsin
  Pepsin: Resistant
[2]
  Temperature (70° C.): Resistant

## GSNFKVEGACSKPCRKYCIDKGARNGKCINGRCHCYY [SEQ ID NO: 19]
trypsin
  Trypsin: Partially Resistant
[1]
  Reduction: Not Resistant

## GSCIGEGVPCDENDPRCCFGLVCLKPTLHGIWYKSYYCYKK [SEQ ID NO: 30]
trypsin
  Trypsin: Partially Resistant
[1]
  Reduction: Not Resistant

## GSISIGIKCSPSIDLCEGQCRIRKYFTGYCSGDTCHCSG [SEQ ID NO: 7]
trypsin
  Trypsin: Partially Resistant
[1]
  Reduction: Not Resistant
[2]
  Temperature (70° C.): Resistant

## GSQFCGTNGKPCVNGQCCGALRCVVTYHYADGVCLKMNP [SEQ ID NO: 23]
trypsin
  Trypsin: Partially Resistant
[1]
  Reduction: Not Resistant

## GSGVPINVRSRGSRDSLDPSRRAGMRFGRSINSRSHSTP [SEQ ID NO: 119, reference compound]
[7]
  Signal ratio Kidney:Blood (3 hours): 5.1
  Signal ratio Kidney:Blood (24 hours): 6.9
  Pixel density-Bkg/area (3 hours): 1.71E+06
  Pixel density-Bkg/area (24 hours): 2.41E+06

## GSGCFGYKCDYYKGCCSGYVCSPTWKWCVRPGPGR [SEQ ID NO: 16]
trypsin
  Trypsin: Not Resistant
[1]
  Reduction: Not Resistant
pepsin
  Pepsin: Not Resistant
[2]
  Temperature (70° C.): Resistant

## GSACLAEYQKCEGSTVPCCPGLSCSAGRFRKTKLCTK [SEQ ID NO: 32]
trypsin
  Trypsin: Not Resistant
[1]
  Reduction: Not Resistant
pepsin
  Pepsin: Resistant
[2]
  Temperature (70° C.): Resistant

## GSVVIGQRCYRSPDCYSACKKLVGKATGKCTNGRCDC [SEQ ID NO: 33]
trypsin
  Trypsin: Not Resistant
[1]
  Reduction: Not Resistant
pepsin
  Pepsin: Resistant
[2]
  Temperature (70° C.): Resistant

## GSDCLPHLRRCRADNDCCGRRCRRRGTNAERRCR [SEQ ID NO: 1]
trypsin
  Trypsin: Partially Resistant
[1]
  Reduction: Not Resistant

## GSSDYCSNDFCFFSCRRDRCARGDCENGKCVCKNCHLN [SEQ ID NO: 29]
trypsin
  Trypsin: Partially Resistant
[1]
  Reduction: Not Resistant

## GSQVQTNVRCQGGSCASVCRREIGVAAGRCINGRCVCYRN [SEQ ID NO: 58]
[7]
  Signal ratio Kidney:Blood (3 hours): 9.9
  Signal ratio Kidney:Blood (24 hours): 4.1
  Pixel density-Bkg/area (3 hours): 7.73E+06
  Pixel density-Bkg/area (24 hours): 1.30E+06

## GGYSRCQLQGFNCVVRSYGLPTIPCCRGLTCRSYFPGSTYGRCQRY [SEQ ID NO: 53]
[3]
  Peptide BUN: 19 mg/dL and 22 mg/dL
[4]
  Plasma Creatinine: 0.35 mg/dL
[5]
  renal physiology (PAS histology, FIG. 24): normal renal physiology
[6]
  Plasma BUN: 20.5 mg/dL

## GSGVPINVRCRGSRDCLDPCRRAGMRFGRCINSRCHCTP [SEQ ID NO: 55]
[7]
  Signal ratio Kidney:Blood (3 hours): 42.2 and 42.4
  Signal ratio Kidney:Blood (24 hours): 10.7
  Pixel density-Bkg/area (3 hours): 2.73E+07
  Pixel density-Bkg/area (24 hours): 2.25E+06

## GSAEIIRCSGTRECYAPCQKLTGCLNAKCMNKACKCYGCV [SEQ ID NO: 28]
trypsin
  Trypsin: Not Resistant
[1]
  Reduction: Partially Resistant

## GSNCAGYMRECKEKLCCSGYVCSSRWKWCVLPAPWRR [SEQ ID NO: 25]
trypsin
  Trypsin: Partially Resistant
[1]
  Reduction: Not Resistant

## GSQVSTNKKCSNTSQCYKTCEKVVGVAAGKCMNGKCICYP [SEQ ID NO: 37]
trypsin
  Trypsin: Partially Resistant
[1]
  Reduction: Not Resistant

## GSACQFWSCNSSCISRGYRQGYCWGIQYKYCQCQ [SEQ ID NO: 34]
trypsin
  Trypsin: Partially Resistant
[1]
  Reduction: Not Resistant

## GSAVCNLKRCQLSCRSLGLLGKCIGDKCECVKHG [SEQ ID NO: 22]
trypsin
  Trypsin: Partially Resistant
[1]
  Reduction: Not Resistant

## GSGVPINVKCRGSRDCLDPCKKAGMRFGKCINSKCHCTP [SEQ ID NO: 11]
trypsin
  Trypsin: Resistant
[1]
  Reduction: Resistant
pepsin
  Pepsin: Resistant

## GSSERDCIRHLQRCRENRDCCSRRCSRRGTNPERRCR [SEQ ID NO: 56]
[7]
  Signal ratio Kidney:Blood (3 hours): 29.9
  Signal ratio Kidney:Blood (24 hours): 7.5
  Pixel density-Bkg/area (3 hours): 1.48E+07
  Pixel density-Bkg/area (24 hours): 2.30E+06

## GSVRIPVSCKHSGQCLKPCKDAGMRFGKCMNGKCDCTPK [SEQ ID NO: 12]
trypsin
  Trypsin: Not Resistant
[1]
  Reduction: Partially Resistant

## GSQVQTNVKCQGGSCASVCRREIGVAAGKCINGKCVCYRN [SEQ ID NO: 17]
trypsin
  Trypsin: Partially Resistant
[1]
  Reduction: Not Resistant

## GSVRIPVSCRHSGQCLRPCRDAGMRFGRCMNGRCDCTPR [SEQ ID NO: 57]
[7]
  Signal ratio Kidney:Blood (3 hours): 8
  Signal ratio Kidney:Blood (24 hours): 6.4
  Pixel density-Bkg/area (3 hours): 4.63E+06
  Pixel density-Bkg/area (24 hours): 1.03E+06

## GSQIDTNVKCSGSSKCVKICIDRYNTRGAKCINGRCTCYP [SEQ ID NO: 27]
trypsin
  Trypsin: Not Resistant
[1]
  Reduction: Not Resistant
pepsin
  Pepsin: Not Resistant
[2]
  Temperature (70° C.): Resistant
